Reference: patent US20080194019

T1: STRAD (human, from pCDNA4 HisMax), Q7RTN6
T1 chain: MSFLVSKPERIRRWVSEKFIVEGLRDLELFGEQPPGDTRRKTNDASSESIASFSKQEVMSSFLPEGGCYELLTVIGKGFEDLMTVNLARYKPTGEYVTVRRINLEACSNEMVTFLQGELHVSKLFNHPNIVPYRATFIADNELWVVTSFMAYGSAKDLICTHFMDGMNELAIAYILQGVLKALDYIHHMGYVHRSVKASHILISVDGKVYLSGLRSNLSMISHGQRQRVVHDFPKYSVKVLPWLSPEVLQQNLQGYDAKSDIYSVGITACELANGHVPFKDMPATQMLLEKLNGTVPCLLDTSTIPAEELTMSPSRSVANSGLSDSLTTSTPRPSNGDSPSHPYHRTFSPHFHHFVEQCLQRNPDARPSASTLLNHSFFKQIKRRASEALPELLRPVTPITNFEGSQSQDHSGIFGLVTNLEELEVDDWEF


Key:
[1] = target: LxT peptide library (x-x-x-x-Leu-x-Thr-x-x-x peptides with a fixed lysine tail K-K-K)
[2] = target: MBP-AMPKa (1-312) bacterial fusion protein
[3] = target: R-T peptide library (arginine fixed at the -1 position of a threonine phosphoacceptor)
[4] = target: SAMS peptide
[5] = target: T1, STRAD (human, from pCDNA4 HisMax), …

Protein	phosphorylation of degenerate peptide libraries (32P incorporation, p81 paper) [1]	AMPK kinase activity towards the SAMS peptide after in vitro phosphorylation by LKB1 [2]	trans-phosphorylation of MBP-AMPKα in vitro [2]	phosphorylation of degenerate peptide libraries (32P incorporation, p81 paper) [3]	in vitro phosphorylation of MBP-AMPKα (32P incorporation; phospho-Thr172 immunoblot) [2]	phosphorylation of the SAMS peptide (32P γ-ATP) [4]	LKB1 autophosphorylation in vitro [5]	AMPK kinase activity towards the SAMS peptide after in vitro kinase reaction with LKB1 [2]
STRAD-activated LKB1 (Flag-tagged wild-type human LKB1 co-expressed with STRAD, Flag immunoprecipitate) (protein) chain 1: MEVVDPQQLGMFTEGELMSVGMDTFIHRIDSTEVIYQPRRKRAKLIGKYLMGDLLGEGSYGKVKEVLDSETLCRRAVKILKKKKLRRIPNGEANVKKEIQLLRRLRHKNVIQLVDVLYNEEKQKMYMVMEYCVCGMQEMLDSVPEKRFPVCQAHGYFCQLIDGLEYLHSQGIVHKDIKPGNLLLTTGGTLKISDLGVAEALHPFAADDTCRTSQGSPAFQPPEIANGLDTFSGFKVDIWSAGVTLYNITTGLYPFEGDNIYKLFENIGKGSYAIPGDCGPPLSDLLKGMLEYEPAKRFSIRQIRQHSWFRKKHPPAEAPVPIPPSPDTKDRWRSMTVVPYLEDLHGADEDEDLFDIEDDIIYTQDFTVPGQVPEEEASHNGQRRGLPKAVCMNGTEAAQLSTKSRAEGRAPNPARKACSASSKIRRLSACKQQ chain 2: MSFLVSKPERIRRWVSEKFIVEGLRDLELFGEQPPGDTRRKTNDASSESIASFSKQEVMSSFLPEGGCYELLTVIGKGFEDLMTVNLARYKPTGEYVTVRRINLEACSNEMVTFLQGELHVSKLFNHPNIVPYRATFIADNELWVVTSFMAYGSAKDLICTHFMDGMNELAIAYILQGVLKALDYIHHMGYVHRSVKASHILISVDGKVYLSGLRSNLSMISHGQRQRVVHDFPKYSVKVLPWLSPEVLQQNLQGYDAKSDIYSVGITACELANGHVPFKDMPATQMLLEKLNGTVPCLLDTSTIPAEELTMSPSRSVANSGLSDSLTTSTPRPSNGDSPSHPYHRTFSPHFHHFVEQCLQRNPDARPSASTLLNHSFFKQIKRRASEALPELLRPVTPITNFEGSQSQDHSGIFGLVTNLEELEVDDWEF	leucine at the -2 position was strongly selected	induced AMPK kinase activity an average of 27 and 50 fold, respectively	co-expression of LKB1 with STRAD led to a dramatic proportional increase in LKB1 autophosphorylation and trans-phosphorylation of MBP-AMPKα	Arginine in the -1 position was selected over random amino acids	–	–	–	–
Flag-tagged human LKB1, wild-type, immunoprecipitated from HT1080 cells (protein) MEVVDPQQLGMFTEGELMSVGMDTFIHRIDSTEVIYQPRRKRAKLIGKYLMGDLLGEGSYGKVKEVLDSETLCRRAVKILKKKKLRRIPNGEANVKKEIQLLRRLRHKNVIQLVDVLYNEEKQKMYMVMEYCVCGMQEMLDSVPEKRFPVCQAHGYFCQLIDGLEYLHSQGIVHKDIKPGNLLLTTGGTLKISDLGVAEALHPFAADDTCRTSQGSPAFQPPEIANGLDTFSGFKVDIWSAGVTLYNITTGLYPFEGDNIYKLFENIGKGSYAIPGDCGPPLSDLLKGMLEYEPAKRFSIRQIRQHSWFRKKHPPAEAPVPIPPSPDTKDRWRSMTVVPYLEDLHGADEDEDLFDIEDDIIYTQDFTVPGQVPEEEASHNGQRRGLPKAVCMNGTEAAQLSTKSRAEGRAPNPARKACSASSKIRRLSACKQQ	–	induced AMPK kinase activity an average of 27 and 50 fold, respectively	–	–	wild-type but not kinase-dead LKB1 immunoprecipitated from mammalian cells efficiently phosphorylated a bacterially expressed maltose-binding protein (MBP) fusion product of the AMPKα catalytic subunit in vitro	LKB1 alone was incapable of detectably phosphorylating the SAMS peptide	co-expression of LKB1 with STRAD led to a dramatic proportional increase in LKB1 autophosphorylation	–
Flag-tagged human LKB1, kinase dead (K78I), immunoprecipitated from HT1080 cells (protein) MEVVDPQQLGMFTEGELMSVGMDTFIHRIDSTEVIYQPRRKRAKLIGKYLMGDLLGEGSYGKVKEVLDSETLCRRAVIILKKKKLRRIPNGEANVKKEIQLLRRLRHKNVIQLVDVLYNEEKQKMYMVMEYCVCGMQEMLDSVPEKRFPVCQAHGYFCQLIDGLEYLHSQGIVHKDIKPGNLLLTTGGTLKISDLGVAEALHPFAADDTCRTSQGSPAFQPPEIANGLDTFSGFKVDIWSAGVTLYNITTGLYPFEGDNIYKLFENIGKGSYAIPGDCGPPLSDLLKGMLEYEPAKRFSIRQIRQHSWFRKKHPPAEAPVPIPPSPDTKDRWRSMTVVPYLEDLHGADEDEDLFDIEDDIIYTQDFTVPGQVPEEEASHNGQRRGLPKAVCMNGTEAAQLSTKSRAEGRAPNPARKACSASSKIRRLSACKQQ	–	–	–	–	wild-type but not kinase-dead LKB1 immunoprecipitated from mammalian cells efficiently phosphorylated	–	–	Kinase-inactive LKB1 alone or coexpressed with STRAD was unable to activate AMPK
